Data: publication PMC8571082

Experiments:
[1] = biological target: T1, factor inhibiting HIF-1 (FIH-1), full-length (human), Q9NWT6; test: SEC; FIH-1 alone, wild type at ~7 μM; profiles of FIH-1 WT and L340R; conditions: remark: other sources report otherwise
[2] = biological target: T1, factor inhibiting HIF-1 (FIH-1), …; test: SEC-MALS; FIH-1 alone at 70 μM, 50 μl on Superdex 200 10/300 GL; 35 mM Na-phosphate pH 7.5, 300 mM NaCl, 500 μM αKG; conditions: remark: other sources report otherwise

B1: factor inhibiting HIF-1 (FIH-1), full-length, Q9NWT6 1-349 (enzyme)
chain: MAATAAEAVASGSGEPREEAGALGPAWDESQLRSYSFPTRPIPRLSQSDPRAEELIENEEPVVLTDTNLVYPALKWDLEYLQENIGNGDFSVYSASTHKFLYYDEKKMANFQNFKPRSNREEMKFHEFVEKLQDIQQRGGEERLYLQQTLNDTVGRKIVMDFLGFNWNWINKQQGKRGWGQLTSNLLLIGMEGNVTPAHYDEQQNFFAQIKGYKRCILFPPDQFECLYPYPVHHPCDRQSQVDFDNPDYERFPNFQNVVGYETVVGPGDVLYIPMYWWHHIESLLNGGITITVNFWYKGAPTPKRIEYPLKAHQKVAIMRNIEKMLGEALGNPQEVGPLLNTMIKGRYN
stoichiometry N [1]: 2 | stoichiometry N [2]: 2
